Several values for one entry are separate records, joined by “and”; a condition that tells them apart may be missing. Equal values may be shown once.
T1: mouse CD40 (cell surface) (mouse, UniProt P27512 20-289)
T1 construct: whole, on cells; also called murine CD40
T1 sequence (looked up): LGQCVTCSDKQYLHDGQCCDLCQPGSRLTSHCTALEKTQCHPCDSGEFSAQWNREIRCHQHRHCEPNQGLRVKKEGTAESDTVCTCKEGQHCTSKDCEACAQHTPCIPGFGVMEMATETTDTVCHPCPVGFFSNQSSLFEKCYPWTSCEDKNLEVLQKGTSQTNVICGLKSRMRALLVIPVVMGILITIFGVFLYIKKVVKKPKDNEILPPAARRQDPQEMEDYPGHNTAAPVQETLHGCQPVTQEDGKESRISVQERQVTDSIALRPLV

T2: human FcγR CD32a R131-GST fusion protein (human, UniProt P12318 34-217, limits assumed)
T2 construct: FcγR-GST fusion protein on anti-GST acceptor beads; also called FcγRIIa; not shown: GST
T2 sequence (looked up): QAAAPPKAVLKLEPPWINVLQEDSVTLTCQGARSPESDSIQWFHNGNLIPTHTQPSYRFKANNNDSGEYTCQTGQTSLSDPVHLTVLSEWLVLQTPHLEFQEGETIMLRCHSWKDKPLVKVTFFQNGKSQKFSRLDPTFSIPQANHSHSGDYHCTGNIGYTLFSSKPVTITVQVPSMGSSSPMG

T3: human FcγR CD32b-GST fusion protein (human, UniProt P31994 43-217, limits assumed)
T3 construct: FcγR-GST fusion protein on anti-GST acceptor beads; also called FcγRIIB; not shown: GST
T3 sequence (looked up): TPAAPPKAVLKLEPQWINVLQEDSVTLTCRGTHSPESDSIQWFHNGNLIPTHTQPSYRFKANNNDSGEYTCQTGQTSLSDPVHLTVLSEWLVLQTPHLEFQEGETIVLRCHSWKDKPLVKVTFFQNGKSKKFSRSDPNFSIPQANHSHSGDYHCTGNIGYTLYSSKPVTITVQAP

B1: Agly hAKH3 IgG4P/IgG1 (antibody, V domains shown)
VH: EVQLVQSGAEVKKPGASVKVSCKASGYTFTTFPIEWVRQAPGQGLEWMGNFHPYNDDTKYNEKFKGRVTLTADKSTSTAYMELSRLRSEDTAVYYCARRGKLPFDSWGQGTTVTVSS
VL: DIQMTQSPSSLSASVGDRVTISCRASQDISNYLNWYQQKPGKVPKLLIYFTSRLRSGVPSRFSGSGSGTDYTLTISSLQPEDVATYYCQQDRKLPWTFGQGTKLEIK
B2: Exemplary Anti-CD40 Antibody 1 (antibody, human IgG4 S228P, kappa)
heavy: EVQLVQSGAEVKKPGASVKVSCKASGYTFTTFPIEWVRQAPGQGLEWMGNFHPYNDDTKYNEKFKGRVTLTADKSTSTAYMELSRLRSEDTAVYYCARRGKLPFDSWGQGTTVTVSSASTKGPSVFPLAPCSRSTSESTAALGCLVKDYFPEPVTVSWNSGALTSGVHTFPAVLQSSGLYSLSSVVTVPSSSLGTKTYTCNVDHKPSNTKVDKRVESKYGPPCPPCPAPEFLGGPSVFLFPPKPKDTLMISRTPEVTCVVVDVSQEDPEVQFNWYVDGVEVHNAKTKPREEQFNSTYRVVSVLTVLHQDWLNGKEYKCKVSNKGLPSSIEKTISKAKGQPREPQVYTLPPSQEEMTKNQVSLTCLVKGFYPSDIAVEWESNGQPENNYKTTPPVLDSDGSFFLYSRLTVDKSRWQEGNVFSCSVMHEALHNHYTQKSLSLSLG
light: DIQMTQSPSSLSASVGDRVTISCRASQDISNYLNWYQQKPGKVPKLLIYFTSRLRSGVPSRFSGSGSGTDYTLTISSLQPEDVATYYCQQDRKLPWTFGQGTKLEIKRTVAAPSVFIFPPSDEQLKSGTASVVCLLNNFYPREAKVQWKVDNALQSGNSQESVTEQDSKDSTYSLSSTLTLSKADYEKHKVYACEVTHQGLSSPVTKSFNRGEC
modifications: Alexa647 conjugate in some whole-blood assays; N-linked glycan on the heavy chain; neither is carried by the letters.
notes: Humanized IgG4/kappa with S228P (Kabat); also called hAKH3 IgG4P; AKH3 IgG4P; copies: 2 + 2

How the values were obtained:
[1] = molecular target: T4, human CD40 (cell surface) (human, UniProt P25942 20-277); experiment: cell-based or functional assay
[2] = molecular target: T4, human CD40 (cell surface); experiment: FACS, A647-conjugated mAb on primary B cells in human whole blood
[3] = molecular target: T1, mouse CD40 (cell surface); experiment: flow cytometry on 293E transfected cells
human C1q = molecular target: T5, human C1q (human, UniProt P02745 23-245; P02746 28-253; P02747 29-245); experiment: ELISA, titrated antibody coated, human C1q detected
T5 construct: the three subunits are from general knowledge; also called Complement protein C1q
Protocol: It was also determined that Exemplary Anti-CD40 Antibody 1 is not capable of activating complement by testing its binding to C1q. The assay (adapted from Idusogie et al., J. Immunol., 164:4178-84 (2000)) was conducted in an ELISA format where titrations of the test antibodies are coated in the wells and binding of human C1q is detected with chicken IgY anti-human C1q (custom reagent from Ayes Labs) followed by a donkey F(ab′) 2 anti-chicken IgY HRP conjugate.

[4] = molecular target: T6, human CD40 H78Q, full length, on 293E cells (human, UniProt P25942 20-277); experiment: binding to CD40 SNP variants expressed on 293E cells (data not shown)
T6 construct: also called CN916
From the text: The prevalence of these SNPs is quite rare, believed to be at or below the 3% range. Exemplary Anti-CD40 Antibody 1 bound to 6 of the CD40 proteins encoded by DNA sequences containing SNPs comparably to WT CD40, but more weakly to H78Q and R90W (reduced plateau) and not quantifiably to C77F (data not shown).

[5] = molecular target: T7, human FcγR CD16a V158-GST fusion protein (human, UniProt P08637 17-208, limits assumed); experiment: ALPHAscreen competition: test antibody displaces biotinylated IgG1 from FcγR-GST
T7 construct: FcγR-GST fusion protein on anti-GST acceptor beads; also called FcγRIIIA; not shown: GST
Protocol: (§1) In order to confirm the expected reduced binding profile of Exemplary Anti-CD40 Antibody 1 to human FcγR, relative binding affinities were measured using Amplified Luminescent Proximity Homogeneous Assay (ALPHAscreen) technology from Perkin Elmer. With this technology, binding pairs are immobilized onto “donor” and “acceptor” beads. Upon laser excitation, donor beads release singlet oxygen that reacts with acceptor beads in close proximity (≦200 nm) generating a cascade of events that ultimately results in fluorescence emission at 520-620 nm.
(§2) The chimeric AKH3 antibody constructs with the human IgG1 and aglycosyl IgG4P/G1 Fc regions were included in the FcγR and C1q assays as Fc competent and Fc-effectorless comparators, respectively. The assay was performed in a competitive format in which binding of test antibodies to FcγR disrupts the interaction of biotinylated IgG1 and FcγR-GST fusion protein immobilized on Streptavidin donor beads and anti-GST acceptor beads respectively. The plates were read using an Envision plate reader (Perkin Elmer) and the resulting relative fluorescence units (RFU) were plotted versus the concentration of test IgG as shown in FIG. 26.

[6] = molecular target: T2, human FcγR CD32a R131-GST fusion protein; experiment: as above
Protocol: as §1, §2

[7] = molecular target: T3, human FcγR CD32b-GST fusion protein; experiment: as above
Protocol: as §1, §2

[8] = molecular target: T8, human FcγR CD64-GST fusion protein (human, UniProt P12314 16-292, limits assumed); experiment: as above
T8 construct: FcγR-GST fusion protein on anti-GST acceptor beads; also called FcγRI; not shown: GST
Protocol: as §1, §2

T4 sequence (P25942 20-277 limits assumed): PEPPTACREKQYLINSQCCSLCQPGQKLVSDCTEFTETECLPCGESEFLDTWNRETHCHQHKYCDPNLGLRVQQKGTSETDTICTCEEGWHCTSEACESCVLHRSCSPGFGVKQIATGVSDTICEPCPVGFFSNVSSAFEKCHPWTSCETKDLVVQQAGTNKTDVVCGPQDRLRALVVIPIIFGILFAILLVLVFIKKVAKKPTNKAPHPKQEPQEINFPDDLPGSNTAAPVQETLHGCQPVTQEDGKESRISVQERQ
T6 sequence (P25942 20-277 H78Q limits assumed): as the sequence (P25942 20-277 limits assumed) above, with H59Q counted along it
T8 sequence (P12314 16-292 limits assumed): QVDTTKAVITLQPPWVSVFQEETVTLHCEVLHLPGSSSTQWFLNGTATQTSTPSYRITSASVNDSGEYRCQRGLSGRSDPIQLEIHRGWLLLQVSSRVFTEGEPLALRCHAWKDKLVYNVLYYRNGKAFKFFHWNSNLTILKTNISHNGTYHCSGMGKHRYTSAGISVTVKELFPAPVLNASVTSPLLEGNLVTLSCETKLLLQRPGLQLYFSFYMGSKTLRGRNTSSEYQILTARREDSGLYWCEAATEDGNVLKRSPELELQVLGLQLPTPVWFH
T7 sequence (P08637 17-208 F176V limits assumed): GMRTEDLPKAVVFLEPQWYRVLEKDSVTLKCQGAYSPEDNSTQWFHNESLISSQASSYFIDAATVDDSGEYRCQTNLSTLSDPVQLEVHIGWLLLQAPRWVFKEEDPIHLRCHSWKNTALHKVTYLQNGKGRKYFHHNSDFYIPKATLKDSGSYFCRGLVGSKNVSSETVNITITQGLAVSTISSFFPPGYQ
T5 sequence (P02745 23-245 limits assumed, chain 1 of 3): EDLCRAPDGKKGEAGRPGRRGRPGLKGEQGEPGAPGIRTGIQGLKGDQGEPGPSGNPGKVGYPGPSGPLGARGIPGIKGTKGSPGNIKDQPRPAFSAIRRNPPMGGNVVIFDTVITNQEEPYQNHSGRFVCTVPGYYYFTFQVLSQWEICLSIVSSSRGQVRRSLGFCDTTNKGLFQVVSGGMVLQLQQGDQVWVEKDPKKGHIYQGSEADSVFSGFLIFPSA
T5 sequence (P02746 28-253 limits assumed, chain 2 of 3): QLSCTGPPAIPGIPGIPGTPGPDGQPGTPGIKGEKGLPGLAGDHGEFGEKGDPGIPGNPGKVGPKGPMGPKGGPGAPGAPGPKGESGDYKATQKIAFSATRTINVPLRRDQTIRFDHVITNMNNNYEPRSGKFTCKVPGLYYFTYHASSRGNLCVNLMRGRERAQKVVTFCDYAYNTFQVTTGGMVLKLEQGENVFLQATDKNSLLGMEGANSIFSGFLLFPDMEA
T5 sequence (P02747 29-245 limits assumed, chain 3 of 3): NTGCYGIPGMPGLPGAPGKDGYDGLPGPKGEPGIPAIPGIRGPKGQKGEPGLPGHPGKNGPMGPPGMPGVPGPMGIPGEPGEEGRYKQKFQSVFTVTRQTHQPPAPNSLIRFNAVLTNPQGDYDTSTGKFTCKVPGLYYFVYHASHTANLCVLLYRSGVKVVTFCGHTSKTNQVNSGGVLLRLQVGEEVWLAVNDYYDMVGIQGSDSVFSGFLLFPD

Binder | IC50, inhibition of CD40L+ Jurkat (D1.1) T cell stimulation of primary human B cells (ICAM-1/CD54 up-regulation, flow cytometry), five normal donors [1] | EC50 [2] | binding result [3] | binding result (human C1q) | binding result [4] | fold reduction of binding against WT IgG1 (chAKH3 IgG1) [5] | fold reduction of binding against WT IgG1 (chAKH3 IgG1) [6] | fold reduction of binding against WT IgG1 (chAKH3 IgG1) [7] | fold reduction of binding against WT IgG1 (chAKH3 IgG1) [8]
B1 | 11 ng/mL and 0.07 nM | 0.5 nM | – | – | – | – | – | – | –
B2 | – | – | no binding | no binding | binds | ~200 fold | ~5 fold | ~5 fold | ~150 fold

Source: patent publication US20170233485A1 (Biogen, published 2017)
